Results from the nanobody polyreactivity screen of Harvey et al. (2022).

assay: yeast display, Sf9 membrane polyspecificity reagent, FACS + sequencing; frameworks hold sequencing errors
Outline: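 Genes from sorted yeast were amplified by colony PCR, read by MiSeq 2 × 250 sequencing and filtered on CDR length. These cells carried a synthetic nanobody library in Saccharomyces cerevisiae BJ5465 and were sorted by FACS into low and high (top ~1%) gates on anti-HA and streptavidin fluorescence. Polyreactivity is labelled according to the gate of origin.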

Sequence	polyreactivity (PSR sort gate)
QVQLVESGGGLVQAGCSLRLTCAASGFIFYYNAMGWYRQAPGKQKELVAAISWSDGGTYYADSVKGRFTISRDNAKNTVSLQMNRLKPEDTAVYYFSGDIDNWSEYDYWGQGTQVTVSS	low polyreactivity
QVQLVESGGGIVQAGGSLRLSCAASGRIFGFYAMVWYRQAPGNERELVAAITINTGSTSYADSVKGRFTSSRDNAKNTDSLPMNSLKPEDTAVYYCATDAAAPKYDYWGQGPQVTVSS	low polyreactivity
QVQLVESGGGLVQAGGSLRLSCAASGITFGFNAMGWNRQAPGKERELVAAITWSVGRTYYADSVKGRFTISRDNAKNTVYLQMNSLKPEDTAVYYCAKDFEAGDDYFAYDYWGQGTQVTVSS	low polyreactivity
QVQLVESGGGLVQAGGSLRLSCAASGRTLTGYDMGWYRQAPGKERELVAAITWSGGSTFYADSVKGRFTMSRYNAKNTVYLQMNSLKPEDTAVYYCNVTDVTEPSLIYGYYWGQGTQVTVSS	low polyreactivity
QVQRVESGGGLVQAGGSLRLSCAASGFIFARNAMGWNRPAPGKERELVAAINQSGGITRYADSVKGRFTISRDNAKNTVYLQMNSLKPEDTAVYYCATPLYVRYDYWGQGSQVTVSS	high polyreactivity
QVQLVESGGGLVQAGGSLRLSCAASGSIFKGYAMGWYRQAPGKERELVAAISRTGGSTYYADSVKGRFTISRDYAKNTVYLQMNSLKPEDTAVYYCAAYSASTYDSWGQGTQVTVSS	high polyreactivity
QVQLVESGGGLVPAGGTLRLSCAASGFNFYFNTMGWYRQATGKERELVAAISSGGSTYYADSVKGRFTISRDNAKNTVSFQMNSLKPEDTAVYYCNKDYLQYYPYDYWGHGTQVTVSS	low polyreactivity
QVQLVETGGGLVQAGGSLRLSCAASGRTFTKYAMGWYRQAPGKERELVAAISGNGGSTHYADSVKGRFTISRDNAKNTVYLQMNSLKPEDTAVYYCAADHRHKSNSWGQGTQVTVSS	low polyreactivity
QVQLVESGGGLVQAGGSLRLSCAASGRTFQYNAMGWYRQAPGKERELVAAISSSGGSTYYADSVKGRFTISRDNAKNTVYLQMNSLKPEDTAVYYCNAYSQSWNFYGDGDYWGQGSQVTVSS	low polyreactivity
QVQLVESGGGLVQAGGILRLSCAASGSIFYGNDMGWYRQEPGKEREFVAGISWSGGSTYYADSVKGRFTISRDNAKNTVYVQMNSLKPEETAVYYCAAVRWGSYTLSDDYWGQGTQVTVSS	low polyreactivity
QVQLVESGGGLVQAGGSLRLSCAASGYIFTFYTMGWYRQEPGKERDLVAAISQTGGRTYYADSVKGRFTISRDNAKNTVYLEMNSLKPEDTAVYYCAARSKRLAHDYWGQGTQVTVSS	high polyreactivity
QDQLVESGGGLVQAGGSLRLSCAASGGIFFYYVMGWYRKAPGKEREFVAAITSGGSTYYADSVKGRFTISGDNAKNTVYLQMNRLKPEDTAVYYCNARDVVDYSVWSRYAYDYWGQGTQVTVSS	low polyreactivity
QVQLVESGGGLVQAGGSLRLSCAASGSILGYYAMGWYRPAPGKERELVAAISGRGGSTYYADSVKGRFTISRDNAKNTVYLQMNSLKPEDTAVYYCAVVWGSYYWGQGGGDYWGQGTQVTVSS	high polyreactivity
QVQLVESGGGLVQAGGILRLSCAASGSIYSGYAMGWYIQAPAKEREFVAAITSTSGSTYYADSVKVRFTISRDNAKNSVYLQMNSLKPEDTAVYYWAGYRYRYYSYDSWGQGTHVTVSS	high polyreactivity
QVQLVESGGGLVQAGGSLRLSCAASGSIFYGYAMGWYRQAPGKERELVAAISYSGDRTYYADSVKGRFTISRDNAKNTVYLQMNSLKPEDTAVYYCAARKHGGTVRGRRDYWGQGTQVTVSS	high polyreactivity
QVQPVESGGGLVHAGGSLRLSCAASGSIFWYNAMGWYRQAPGQEWELVAAINWSGGSTFYADSVKGRFTISRDNEKNTVYLQMNSLNPEDTAVYYCAADDWSTGYDFWGQGTQETVSS	high polyreactivity
QVQLVESGGGLVQAGGSLRLSCAASGIIFNSYSMGLYRHAPGKERELVAAITYSGTRTYYADSVKGRFTISRDNAKNTVYLQMNCLKPEDTAVYYCNAVTGRGRTITQYDSWGQGTQVTVSS	high polyreactivity
QVQLVESGGGLVQAGGRLRLSCAASGSIFQYNAMGWSRQAPGKERELVAAISRSGGSTYYADSVKGRFTISRDNAKNTVYLQMNSLKPEDTAVYYCHAVLGYYSPYDYWGQGTQVTVSS	low polyreactivity
QVQLVESGGGLVQAGGSLRLSCAASGSIFTSYAMGWYRQAPGKERELVAGISWSVGGITYYADSVKGRFTISRDNAKNTVYLQMNSLKPEDTAVYYCAADPEGGLGTIPEDYWGQGTQVTVSS	low polyreactivity
QVQRVESGGGLVLAGGSLRLSCAASAHIFAWYAMGWYRQAPGNERELVADISSRGGSTYYADSVKGRITISRDNAKNTVYLQMNSLKPEDTAVYSCAAVCYWTQDYDYWGQGTQVTVSS	low polyreactivity
QVQLVESGGGLVQAGGSLRLSCAASGSIYPYNAIGLYRQAPGKERELVAAISYRGGRTYYADSVMGRFTISRDNAKNTVYLQKNSLKPEDTAVYYCNADSIYSARGWLYGYWGQGTQVTVSS	low polyreactivity
QVQLVESGGGLVQAGGSLRLSCAASGSTFDYNAMGWYRQAPGTERELVAAISRGGNTYYADSVKGRFTISRDNAKNTVYLQMNSLKPEDTAVYYCAKDSYGSYRFVRKRQKAYGYWGQGTQVTVSS	low polyreactivity

Sequence	polyreactivity (PSR sort gate)
QVQLVESGGGLVKAGGSLRLSCAASGSIIKRYAMGWYRQARGKERELVAAITQSGGRTYYADSVKGRFTISRDNAKNTVYLQMNSLKPEDTAVYYCNAVRWYLYDYWGQGTQVTVSS	high polyreactivity
QVQLVESGGGLVQAGGRLLLICAASGRIFIANAMGWYSKAPGKERELVATISRSGVSTNYADSVKVRFTISRDNAKNSVYLQMNSLKPEDTAVYYCADIRSGGQGQGYGYWGQVTQVTVSS	high polyreactivity
QVQLVESGGGLVQAGGSLRLSCAASGSTFDYYTMGWYRQAPGKERELVAAISYSGSRTYYADSVKGRFTISRDNAKNTVYLQMNSLKPEDTAVYYCAAVYRAKYGYWGQGTQVTVSS	high polyreactivity
QVQLVESGGGLVQAGGSLRLSCAASGFIFGYNAMGWYRQAPGKERELVAAITRGGITYYADSVKGRFTISRDNAKYTVYLQMNSLKPEDTAVYYCASDWSVVYTDYDSWGHGTQVTVSS	low polyreactivity
QVQLVESGGGLVQAGGSLRLSCAASGFTFGKYAMGWYRQAPGKERELVAAITWSGGRTYYADSVKGRFTISRDNAKNTVYLQMNSLKPEDTAVYYCNKVYLYSSLARPYDYWGQGTQVTVSS	high polyreactivity
QVQLVESGGGLVQAGGSLRLSCAASGLTFAQNAMGWYRQAPGKERELVAAITRSGGRTYYADSVKGRFTISRDNSKNTVYFQMNSLKPEDTAVYYCAARVLQYSGYYYWGQGTQVTVSS	high polyreactivity
QVQLVESGGGLVQAGGSLRLSCAASGFTFYYYAMGWYRQAPGKERELVAAITWSGDSTNYADSVKGRFTISRDNAKNSVYLQMNSLKPEDTAVYYCATESYDSYGLYDYWGQGTQVTVSS	low polyreactivity
QVQLVESGGALVQAGGSLRLSCAASGFFIFTYAMGWYRQAPGKERELVAAISSRGGSTYYADSVKGRFTISRDNAKNTVYLQMNRLKPEDTAVYYCAAQAYGRYPYGYWGHGTQVTVSS	high polyreactivity
QVQLVESGGGLVQAGGSLRLSCAASGSIFTGYAMGWYRQAPGKERELVAGISWGGTSTYYADSVKGRFTISRDNAKYTVYLQMNSLKPEDTAVYYCSAVRGKYGYLTTPDWFDYWGQGTQVTVSS	high polyreactivity
QVQLVESGGGLVQAGGSLRLSCSASGFIFWYNAMGWYRQAPGKERELVAAITTAGSTNYADSVKGRFTISRDNAKNTVYLQMNSLKPEDTAVFYCNKVQLRNRYPYRYGFGDVGYWGQGTQVTVSS	low polyreactivity
QVQLVESGGGLVQAGGSLRLSCAGSGFIFTDYAMGWYRQAPGKERELVATISWSGSSTYYADSVKGRFTISRDNAKNTVYLQMNSLKPEDTAVYYCAAEFWYTYPYLVDYWGQGTQVTVSS	low polyreactivity
QVQLVESGGGLVQAGGSLRLSCAASGITIRRYAMGWYIQAPGKERELVAAITTGGGGTYYADSVKGRFTISRDNAKNTVYLQMNSLKPEDTAVYYCAATYWRTYPSYYWGQGTQVTVSS	high polyreactivity
QVQLVESGGGLVQAGGSLRLSCAATGLIFRSYAMGWYRQAPGKDRELVARISIRGGSTYYADSVKGRFTISRDNAKNTGSLQMNSLKPEDTAVYYCAAVGSFRGYRYDYWGQGTQVTVSS	high polyreactivity
QVQLVESGGGLVQAGGSLRLSCAASGRTFRRYAMGWYRQAPGKERELVAAISRSGGSTSYADSVKGRFTISRDNAKNTVYLQMKSLKPEDTAVYYCAVEVASYDRRPSEYYWGQGTQVTVSS	high polyreactivity
QVQLVESGGGLVQAGGSLRLSCAASGSIFYRNTMGWYRQAPGKERELVAGITGNGGRTYYADSVKGRFTISRDNAKNTVYLQMNSQKPEDTAVYYCAAGTWTWYRYYYWGQGTQVTVSS	high polyreactivity
QVQLVESGGGLVQAGGSLRLSCAASGSIFPDYAMGWYRQAPGKERELVAGISSNSGSTYYADSVKGRFTISRDNAKNTVYLQMTSLKPEDTAVYYCAKDSFWRDTGYTDGDYWGQGTQVTVSS	low polyreactivity
QVQLVESGGGLVQAGGSLRLSCAASGSTLSYYAMGWYRQAPGKEREWVAAISLSVGSTYYADSVKGRFTISRDNAKNTVYLQMNSLKPEETAVYYCAADDFYSGPFRGDYWGQGTQVTVSS	low polyreactivity
QVQLVESGGGLVQAGGSLRLSCAASGFIFSNNDRGLYRQAPGKDREVVAVINGGGSTYYADSVKASFTISRDNAKNTVFLQMNSLKPEDTAVYYCARKSWPKERRVDPGYDYWGQGTKVTVSS	low polyreactivity
QVNLVESGGGLVQAGGSLRLSCAASGLTFARNAMGWYSQAPGKERELVASITSVGRTNYADSVKGRFTISRDNAKNTVYLEMNSLKPEDTAVYFCGAKPSWHGVYYWGQGTQVTVSS	low polyreactivity
QVQLVESGGGLVQAGGSLRVSCAASGRIFFPYDMGWYRQAPGKERELVAAITNSGGRTYYADSVKGRFTISRDKAKNTVYLQMNSLKPEDTAVYYCNADAYEFRWVKHYDYWGQGTQVTVSS	low polyreactivity
QVQHVESGGGLVQAGGSLRLSCAASGSTFWGYAMGWYRQAPGKERELVAAINWIGGSDTFYADSVKGRFTISRDNAKNTVYLQMNSLKPEDTAVYYCAATYYNLPYSWGYDSWGQGSQVTVSS	low polyreactivity
